Bridges are numbered along the chain shown (N, C = ends). Where no end group is shown, it is not given here.
How the values were obtained:
[1] = molecular target: T1, human angiotensin-converting enzyme 1 (hACE1) (human, UniProt P12821 30-1256); assay: enzyme inhibition assay; 0.25 nM hACE1, 10 uM fluorogenic substrate Mca-Arg-Pro-Pro-Gly-Phe-Ser-Ala-Phe-Lys(Dnp)-OH, dilutions of inhibitor; 10 mM Tris-HCl pH 7.4, 300 mM NaCl, 100 uM ZnCl2, 0.1% BSA, 0.1% DMSO; settings: both partners purified
[2] = molecular target: T2, human angiotensin-converting enzyme 1 (human, UniProt P12821 30-1256); assay: enzyme inhibition assay (fluorogenic substrate); 0.25 nM hACE1, 10 μM Mca-Arg-Pro-Pro-Gly-Phe-Ser-Ala-Phe-Lys(Dnp)-OH, MP 0.03 nM to 100 μM; 10 mM Tris-HCl pH 7.4, 300 mM NaCl, 100 μM ZnCl2, 0.1% BSA, 0.1% DMSO; settings: both partners purified
T2 construct: also called hACE1; human ACE1 enzyme
T2 sequence (P12821 30-1256): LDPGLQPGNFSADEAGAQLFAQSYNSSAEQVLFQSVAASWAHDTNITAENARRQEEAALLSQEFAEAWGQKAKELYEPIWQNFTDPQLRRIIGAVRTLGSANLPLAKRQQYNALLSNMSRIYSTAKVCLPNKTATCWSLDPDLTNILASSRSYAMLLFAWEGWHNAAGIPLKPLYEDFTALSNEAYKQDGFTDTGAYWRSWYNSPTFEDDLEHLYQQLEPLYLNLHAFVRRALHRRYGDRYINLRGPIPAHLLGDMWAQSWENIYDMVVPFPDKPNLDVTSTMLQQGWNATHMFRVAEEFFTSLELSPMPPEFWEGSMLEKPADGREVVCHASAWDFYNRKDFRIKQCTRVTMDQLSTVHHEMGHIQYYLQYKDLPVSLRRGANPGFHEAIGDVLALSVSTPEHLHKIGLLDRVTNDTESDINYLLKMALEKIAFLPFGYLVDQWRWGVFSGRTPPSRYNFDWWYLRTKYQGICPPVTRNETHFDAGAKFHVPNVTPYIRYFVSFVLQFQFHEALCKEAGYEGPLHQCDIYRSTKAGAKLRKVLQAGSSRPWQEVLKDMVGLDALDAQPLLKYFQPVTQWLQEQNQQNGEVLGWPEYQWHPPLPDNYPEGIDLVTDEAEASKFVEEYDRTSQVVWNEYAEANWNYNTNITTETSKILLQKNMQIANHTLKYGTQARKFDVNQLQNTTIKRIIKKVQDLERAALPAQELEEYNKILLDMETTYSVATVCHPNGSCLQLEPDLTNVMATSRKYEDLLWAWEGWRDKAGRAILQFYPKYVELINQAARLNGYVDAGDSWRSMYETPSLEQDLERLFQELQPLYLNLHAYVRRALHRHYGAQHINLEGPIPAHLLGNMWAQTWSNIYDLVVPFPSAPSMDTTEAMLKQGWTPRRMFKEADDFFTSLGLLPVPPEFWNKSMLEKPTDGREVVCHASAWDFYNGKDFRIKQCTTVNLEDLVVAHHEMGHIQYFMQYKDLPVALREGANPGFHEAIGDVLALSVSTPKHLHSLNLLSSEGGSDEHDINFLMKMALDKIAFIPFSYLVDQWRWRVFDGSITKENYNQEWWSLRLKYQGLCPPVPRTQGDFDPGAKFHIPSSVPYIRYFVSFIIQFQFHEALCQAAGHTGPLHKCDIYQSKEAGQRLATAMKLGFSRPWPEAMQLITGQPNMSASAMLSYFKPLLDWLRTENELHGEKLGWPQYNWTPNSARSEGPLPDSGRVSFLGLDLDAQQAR

[3] = molecular target: T1, human angiotensin-converting enzyme 1 …; assay: enzyme inhibition assay; settings: both partners purified
[4] = molecular target: extracellular catalytic domain of human angiotensin-converting enzyme 2 (hACE2), produced in mammalian cells (human, UniProt Q9BYF1 19-615); assay: ITC; MicroCal iTC200, 25 °C, 100 mM Tris pH 7.4, 200 mM NaCl; hACE2 in the cell (6 or 7 uM), peptide in the syringe (60 or 70 uM); single-site model; settings: both partners purified
extracellular catalytic domain of human angiotensin-converting enzyme 2 (hACE2), produced in mammalian cells, sequence (Q9BYF1 19-615): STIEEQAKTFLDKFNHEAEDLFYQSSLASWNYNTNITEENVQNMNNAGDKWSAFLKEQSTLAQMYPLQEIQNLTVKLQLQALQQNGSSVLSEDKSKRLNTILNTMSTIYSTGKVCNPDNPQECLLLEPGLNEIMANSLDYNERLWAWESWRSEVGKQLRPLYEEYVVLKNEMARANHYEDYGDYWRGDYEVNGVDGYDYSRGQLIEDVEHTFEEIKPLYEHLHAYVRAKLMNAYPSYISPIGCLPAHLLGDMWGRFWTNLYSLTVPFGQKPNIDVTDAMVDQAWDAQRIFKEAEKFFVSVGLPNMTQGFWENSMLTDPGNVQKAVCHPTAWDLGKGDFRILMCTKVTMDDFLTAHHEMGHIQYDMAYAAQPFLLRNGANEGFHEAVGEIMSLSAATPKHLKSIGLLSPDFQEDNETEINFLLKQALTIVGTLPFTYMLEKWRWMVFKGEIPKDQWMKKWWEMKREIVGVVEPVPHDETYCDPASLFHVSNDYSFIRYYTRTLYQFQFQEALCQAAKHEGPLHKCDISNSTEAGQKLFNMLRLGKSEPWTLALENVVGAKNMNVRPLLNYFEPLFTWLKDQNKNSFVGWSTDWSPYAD

[5] = molecular target: T3, biotinylated extracellular catalytic domain of human angiotensin-converting enzyme 2 (hACE2), produced in … (human, UniProt Q9BYF1 19-615); assay: flow cytometry on cells; yeast surface titration: yeast cells displaying the ligand incubated with soluble biotinylated hACE2 (100 pM to 3 uM), at least 1 h, room temperature (25 °C, pH 7.4); binding/display MFI, one-site fit; apparent KD; settings: one partner purified
T3 construct: also called biotinylated hACE2
T3 sequence (Q9BYF1 19-615): as above

T1 sequence (P12821 30-1256): as the sequence (P12821 30-1256) above

B1: synthetic 'two-ring' macrocyclic peptide GR3.1.2 (isomer of GR3.1) (peptide)
peptide: ACFLRCHRDVKCWLWCSG
modifications: also: two-ring macrocycle, isomer of GR3.1, ring type and connectivity not given here
- IC50 [1]: > 100 µM

B2: GR1.4, synthetic one-ring macrocyclic peptide (peptide)
peptide: ACEPLGYNLFLCSG
notes: also called synthetic GR1.4
- Ki [2]: > 100 µM

B3: DX600, disulfide-constrained cyclic peptide inhibitor of hACE2 (peptide)
peptide: GDYSHCSPLRYYPWWKCTYPDPEGGG
modifications: disulfide 6-17 (inferred)
notes: source: bought: Selleck Chemicals LLC
- IC50 [3]: > 100 µM
- Ki [3]: > 100 µM

B4: synthetic 'one-ring' macrocyclic peptide GR1.4 (peptide)
peptide: ACEPLGYNLFLCSG
modifications: also: one-ring macrocycle, ring type and places not given here
- IC50 [1]: > 100 µM
- stoichiometry N [4]: 1.4 sites

B5: synthetic 'one-ring' macrocyclic peptide GR1.1 (peptide)
peptide: ACFFIGFNRWICSG
modifications: also: one-ring macrocycle, ring type and places not given here
- IC50 [1]: > 100 µM

B6: GR3.1.2, synthetic isomer 2 of the two-ring macrocyclic peptide GR3.1 (peptide)
peptide: ACFLRCHRDVKCWLWCSG
notes: also called synthetic GR3.1.2
- Ki [2]: > 100 µM

B7: GR1.1, synthetic one-ring macrocyclic peptide (peptide)
peptide: ACFFIGFNRWICSG
notes: also called synthetic GR1.1
- Ki [2]: > 100 µM

B8: yeast-displayed 'one-ring' macrocyclic peptide GR1.3 (peptide)
chain: ACEPLGFNRWICSG
modifications: also: one-ring macrocycle, closure not given here
- Kd [5]: 0.0538 µM

Source: publication PMC13071878 (Journal of Medicinal Chemistry, 2026)
